Test results reported in patent publication US20240262878A1, “PHOTOACTIVATABLE GASDERMIN PROTEINS” (THE BOARD OF TRUSTEES OF THE UNIVERSITY OF ILLINOIS, priority 2021, published 2024).

Assays:
GSDMD pores = target: T1, GSDMD pores (Homo sapiens, UniProt P57764); experiment: Free-standing planar lipid bilayer electrophysiology of reconstituted GSDMD pores; type: biochemical
T1 construct: His-SUMO (N, cleaved yes); made in house; host or cells: E. coli BL21
T1 sequence (P57764 1-275 limits assumed): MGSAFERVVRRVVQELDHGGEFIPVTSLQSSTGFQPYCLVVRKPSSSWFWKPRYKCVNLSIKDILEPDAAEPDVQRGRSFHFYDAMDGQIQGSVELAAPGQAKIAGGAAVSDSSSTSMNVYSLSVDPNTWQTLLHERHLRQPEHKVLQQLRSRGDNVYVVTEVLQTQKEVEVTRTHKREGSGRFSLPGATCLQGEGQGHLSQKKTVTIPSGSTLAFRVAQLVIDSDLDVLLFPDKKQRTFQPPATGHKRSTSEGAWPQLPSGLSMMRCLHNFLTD
Method: Protein Purification. Plasmid encoding the full length human GSDMD with a N-terminal His-SUMO tag was transformed into E. coli BL21 strain. The cultures were grown at 37° C. until OD600 0.8, and protein expression was induced with 0.2 mM isopropyl β-D-1-thiogalactopyranoside (IPTG) overnight at 20° C. The cells were harvested by centrifugation and the pellet was resuspended in 20 mM Tris buffer, pH 7.5, 50 mM NaCl, 5 mM imidazole, 20 mM MgCl2, 10 mM KCl, 0.5 mM TCEP, 0.1 mM protease inhibitor, and DNase I. After resuspension, cells were disrupted by high-pressure and centrifuged at 30,000 g at 4° C. for 1 hour. The supernatant was incubated for 2 hours at room temperature with pre-equilibrated Ni-NTA affinity resin (Thermo Scientific) and then passed through a column for gravity flow purification. The column was washed with 20 column volumes of resuspension buffer, and the fusion protein was eluted with three column volumes of the same buffer with 250 mM imidazole. SUMO-tag cleavage was achieved by addition of ULP1 protease to the solution and subsequent dialysis overnight at 4° C. against 20 mM Tris buffer, pH 7.5, 50 mM NaCl, 0.5 mM TCEP. GSDMD was eluted from a second round of purification through pre-equilibrated Ni-NTA affinity resin. The protein was further purified by HI-TRAP® Q ion-exchange resin and a SUPERDEX® 75 gel filtration column (GE Healthcare) pre-equilibrated with 20 mM Tris buffer, pH 7.5, 50 mM NaCl, 0.5 mM TCEP. The purified protein was concentrated to 20 mg/ml and frozen at −80° C.
Free-Standing Lipid Bilayer Formation and Electrophysiology. For the lipid bilayer, a bilayer chamber with a polystyrene cuvette was used. In addition, the folding method, which is based on Langmuir-Blodgett film formation (Kroemer et al. (2009) Cell Death Differ. 16:3-11; Weavers et al. (2016) Cell 165:1658-1671) was employed. Monolayers that were spread in the air-water interface were faced at the chamber hole (Bergsbaken & Fink (2009) Nat. Rev. Microbiol. 7:99-109; Mulvihill et al. (2018) EMBO J. 37 (14): e98321). In brief, a shallow trough made of polystyrene was filled with recording solution, and the surface was separated into two parts by one of the cuvette walls. Bilayers were formed by monolayers of 1:3 1-palmitoyl-2-oleoylphosphatidylethanolamine (POPE)/1-palmitoyl-2-oleoylphosphatidylcholine (POPC) (Avanti-lipids) in pentane; where appropriate, phosphoinositides of the indicated headgroup were introduced with di-oleoyl (18:1) fatty acid chains at 10% relative concentration. A small amount of phospholipid, dispersed in pentane solution, was dropped on one of the water surfaces and as pentane evaporated, the lipid molecules remained at the air-water interface. The movements of the lipid molecules became less vigorous, and eventually the lipid molecules packed together to form a monolayer. For the formation of the planar lipid bilayer by the folding method, a monolayer was formed at the air-water interface in each compartment. Upon raising the recording solution level by adding more solution, the monolayer ran up on the cuvette surface and passed through the hole, where the two monolayers from both sides encountered each other and formed a bilayer. The membrane formed by this method has been referred to as a “solvent-free” membrane. The advantage of this method over other methods, like the painting method, is the capacity to form an asymmetrical membrane in which the lipid composition of either leaflet is arbitrarily defined (Kayagaki et al. (2015) Nature 526: 666-671). Once formed, the membrane retains this asymmetry for a long time because the flip-flop or exchange of the lipid molecules between both leaflets of the membrane is very slow.
For incorporation of the GSDMD into the lipid bilayer, 2 μM of the purified GSDMD protein was added to the cis side chamber along with 2 μM of caspase 1. The specific membrane capacitance of the membrane formed by the folding method was 0.6-0.8 μF/cm^2. […]

living endothelial cells = experiment: Whole-cell patching after injection of activated recombinant GSDMD; type: cell-based; conditions: injection of activated protein, n=15
Description: To further address whether the calcium dynamics primarily reflected that of GSDMD pores, whole-cell patching was directly recorded in living endothelial cells, which also undergo pyroptosis. […] Additionally, as befitting a large pore, the GSDMD pore opening/closing dynamics were not restricted to calcium observations. Calcium flares were visualized, which occurred in coincidence with the transient flux of a large fluorogenic molecule, within the same spatiotemporal context in living cells.

B1: GSDMD: purified recombinant full length human GSDMD, activated by caspase-1 (protein, UniProt P57764 1-484, looked up)
chain: MGSAFERVVRRVVQELDHGGEFIPVTSLQSSTGFQPYCLVVRKPSSSWFWKPRYKCVNLSIKDILEPDAAEPDVQRGRSFHFYDAMDGQIQGSVELAAPGQAKIAGGAAVSDSSSTSMNVYSLSVDPNTWQTLLHERHLRQPEHKVLQQLRSRGDNVYVVTEVLQTQKEVEVTRTHKREGSGRFSLPGATCLQGEGQGHLSQKKTVTIPSGSTLAFRVAQLVIDSDLDVLLFPDKKQRTFQPPATGHKRSTSEGAWPQLPSGLSMMRCLHNFLTDGVPAEGAFTEDFQGLRAEVETISKELELLDRELCQLLLEGLEGVLRDQLALRALEEALEQGQSLGPVEPLDGPAGAVLECLVLSSGMLVPELAIPVVYLLGALTMLSETQHKLLAEALESQTLLGPLELVGSLLEQSAPWQERSTMSLPPGLLGNSWGEGAPAWVLLDECGLELGEDTPHVCWEPQAQGRMCALYASLALLSGLSQEPH
modifications: full-length activated by caspase-1
- mean current of single pores (GSDMD pores; POPE/POPC baseline bilayer): 32 pA
- open probability (GSDMD pores; POPE/POPC baseline bilayer): ~0.2
- time to micro-currents (protein-membrane interaction) after protein introduction (GSDMD pores; POPE/POPC baseline bilayer, GSDMD + caspase-1, n=20 bilayers): 27.2 ± 2.7 min
- ion selectivity of pores (GSDMD pores; ramp protocol, dual rectification): not inherently ion-selective
- single pore currents, whole-cell patching (living endothelial cells): showed single pore currents
